In article doi:10.1101/2022.08.10.503460:
Blank lines part the entries; values can stand above or below the substance they belong to.

Tests used:
Pcdh15 EC1-11 PICA [1] = test: AFM force-clamp spectroscopy
Cdh23 EC1-5 = test: AFM force-clamp spectroscopy
full-length Cdh23 EC1-27 = test: AFM force-clamp spectroscopy
[2] = target: Mouse Cdh23 EC1-2 (mouse) (UniProt Q99PF4); test: AFM force-clamp spectroscopy
Pcdh15 EC1-11 PICA [3] = target: Pcdh15 EC1-11 PICA

Sequence of Mouse Cdh23 EC1-2 (mouse) (Q99PF4 24-228): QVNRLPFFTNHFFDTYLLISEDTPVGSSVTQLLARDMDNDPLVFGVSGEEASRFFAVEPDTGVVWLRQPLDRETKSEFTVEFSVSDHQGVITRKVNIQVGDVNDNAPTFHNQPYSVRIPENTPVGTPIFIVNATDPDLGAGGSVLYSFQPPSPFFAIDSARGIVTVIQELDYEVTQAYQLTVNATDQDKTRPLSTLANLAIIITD

intrinsic lifetime at no force (τ0) (Pcdh15 EC1-11 PICA [1]): 30 s
Substance: Cdh23 EC1-27 Fc dimer (Fc fusion)

Substance: Mouse Pcdh15 EC1-2 (from UniProt Q99PJ1 27-259) (domain or fragment)
zero-force lifetime (Cdh23 EC1-5): 1.5 s
zero-force lifetime (full-length Cdh23 EC1-27): 10 s

koff [2]: 0.3 s⁻¹
Substance: Pcdh15 EC1-2 (R113G), Q99PJ1 27-259 (domain or fragment; other documents disagree on this pair)

stoichiometry N (Pcdh15 EC1-11 PICA [3]): 2
Substance: Pcdh15 EC1-11 PICA (domain or fragment)
